# Molecular target: T1, FBXO44^FBA (Homo sapiens, UniProt Q9H4M3)
# T1 construct: we expressed and purified only this domain for all in vitro studies; 6xHis (N, cleaved yes); MBP (N, cleaved yes); made in house; host or cells: Escherichia coli Rosetta BL21 (λDE3)
# T1 sequence (Q9H4M3 71-252 limits assumed): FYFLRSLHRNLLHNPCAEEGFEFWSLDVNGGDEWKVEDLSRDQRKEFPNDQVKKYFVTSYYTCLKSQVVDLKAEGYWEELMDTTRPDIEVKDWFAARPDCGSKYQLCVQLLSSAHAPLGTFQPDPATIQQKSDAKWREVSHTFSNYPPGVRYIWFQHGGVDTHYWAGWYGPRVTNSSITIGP
# Assay: Peptide microarray (PEPperPRINT), FLAG-FBXO44^FBA binding
# Conditions: Table S1; RGS2^5–16 single-residue substitution; 2 μg/ml FBXO44^FBA overnight at 4 °C, PBS 0.005% Tween pH 7.4, anti-FLAG DyLight800 fluorescence; three independent experiments with three technical replicates each
# Excerpt: To do so, we utilized a custom peptide microarray (PEPperPRINT GmbH). The design of this array was twofold: (1) substitution at each position with every other natural eukaryotic amino acid; (2) truncation of the peptide from the C terminus. We assessed the binding of FLAG-FBXO44^FBA to the array utilizing fluorescence immunoreactivity corresponding to the amount of FLAG-FBXO44^FBA bound. […] Substitutions at Asp^12 were not only tolerated but also seemed to improve binding in every case (Fig. 3B). This, combined with the fact that substituting any residue in His^11–Met^16 with Arg, and in most cases with Lys, improved FBXO44^FBA binding, indicating the presence of negative charges at the binding interface.
# Figure 2 Systematic mutation of the RGS2 degron alters FBXO44^FBA binding. A custom microarray (PEPperPRINT) was designed where each position of the RGS2^5–16 peptide was substituted for each natural amino acid. We also included truncated peptides on the array. This was incubated with purified FBXO44^FBA and probed with α-FLAG. A, a representative scan of a peptide microarray (top) and a truncated peptide (bottom). B, heatmap of mean fluorescence of quantified microarray scans. The scale represents the mean fluorescence in percentage points across all replicates, normalized to the signal obtained with the original residue at each position. C, heatmap of standard deviation of quantified microarray scans. The scale represents the standard deviation in percentage points across all replicates. […] Residues are color-coded based on properties: blue, positive charge; red, negative charge; orange, uncharged polar; green, hydrophobic; yellow, Cys (C); bright green, Pro (P); and black, Gly (G). […] Results of three independent experiments with three technical replicates each. For a statistical significance summary, see Table S1. FBXO44, F-box only protein 44; RGS2, regulator of G protein signaling 2.
# Figure 3 Effects of RGS2^5–16 peptide residue changes on FBXO44^FBA binding. Data are presented as % FLAG immunoreactivity, as compared with the parent peptide residue. […] The original residue is marked in each graph with a vertical dotted line. Boxes extend from the 25th to 75th percentile with a line marking the median. Whiskers extend to the minimum and maximum. Results of three independent experiments with three technical replicates each. Data were analyzed by two-way ANOVA, with Tukey's post hoc test for pairwise comparison (simple effect within columns). Statistical significance is summarized in Table S1 and color-coded according to the legend. FBXO44, F-box only protein 44; RGS2, regulator of G protein signaling 2.
# The microarray slide was seated into the incubation tray according to PEPperPRINT's instructions. The array well was then incubated in washing buffer (PBS) with 0.005% Tween (Sigma; P1379, pH 7.4) at room temperature for 15 min on an orbital shaker. Washing buffer was aspirated, and the array was then incubated with Rockland blocking buffer at room temperature for 30 min on an orbital shaker. Blocking buffer was then aspirated, and the array was incubated in staining buffer (washing buffer with 10% Rockland blocking buffer) at room temperature for 15 min on an orbital shaker. Staining buffer was aspirated, and purified FBXO44 FBA domain diluted to 2 μg/ml in staining buffer was added. The array was then placed on an orbital shaker overnight at 4 °C. The FBA domain solution was removed, and an array was washed three times with washing buffer. After the third array was incubated in staining buffer for 15 min at 4 °C on an orbital shaker. The array was then incubated with antibody dilution (anti-FLAG DyLight800 and anti-HA DyLight680, both diluted 1:2000 in staining buffer) for 45 min at 4° C on an orbital shaker. The array was then washed three times with washing buffer. […]
row,Mean % difference from parent peptide (FLAG immunoreactivity),Substance
1,27.84%,"A8R: array RGS2^5–16 peptide, A8 substituted by R (MFLRVQHDCRPM; UniProt P41220 5-16, looked up, variant A8R)"
2,-72.59%,"C13A: array RGS2^5–16 peptide, C13 substituted by A (MFLAVQHDARPM; UniProt P41220 5-16, looked up, variant C13A)"
3,-82.91%,"C13F: array RGS2^5–16 peptide, C13 substituted by F (MFLAVQHDFRPM; UniProt P41220 5-16, looked up, variant C13F)"
4,-87.24%,"C13I: array RGS2^5–16 peptide, C13 substituted by I (MFLAVQHDIRPM; UniProt P41220 5-16, looked up, variant C13I)"
5,-85.38%,"C13N: array RGS2^5–16 peptide, C13 substituted by N (MFLAVQHDNRPM; UniProt P41220 5-16, looked up, variant C13N)"
6,35.61%,"C13R: array RGS2^5–16 peptide, C13 substituted by R (MFLAVQHDRRPM; UniProt P41220 5-16, looked up, variant C13R)"
7,-88.12%,"C13V: array RGS2^5–16 peptide, C13 substituted by V (MFLAVQHDVRPM; UniProt P41220 5-16, looked up, variant C13V)"
8,-46.69%,"C13W: array RGS2^5–16 peptide, C13 substituted by W (MFLAVQHDWRPM; UniProt P41220 5-16, looked up, variant C13W)"
9,34.22%,"D12F: array RGS2^5–16 peptide, D12 substituted by F (MFLAVQHFCRPM; UniProt P41220 5-16, looked up, variant D12F)"
10,42.93%,"D12I: array RGS2^5–16 peptide, D12 substituted by I (MFLAVQHICRPM; UniProt P41220 5-16, looked up, variant D12I)"
11,32.23%,"D12T: array RGS2^5–16 peptide, D12 substituted by T (MFLAVQHTCRPM; UniProt P41220 5-16, looked up, variant D12T)"

# The next lines start with the substance.
row,Substance,Mean % difference from parent peptide (FLAG immunoreactivity)
1,"C13D: array RGS2^5–16 peptide, C13 substituted by D (MFLAVQHDDRPM; UniProt P41220 5-16, looked up, variant C13D)",-75.39%
2,"C13E: array RGS2^5–16 peptide, C13 substituted by E (MFLAVQHDERPM; UniProt P41220 5-16, looked up, variant C13E)",-87.12%
3,"C13G: array RGS2^5–16 peptide, C13 substituted by G (MFLAVQHDGRPM; UniProt P41220 5-16, looked up, variant C13G)",-89.67%
4,"C13H: array RGS2^5–16 peptide, C13 substituted by H (MFLAVQHDHRPM; UniProt P41220 5-16, looked up, variant C13H)",-83.62%
5,"C13K: array RGS2^5–16 peptide, C13 substituted by K (MFLAVQHDKRPM; UniProt P41220 5-16, looked up, variant C13K)",-53.92%
6,"C13L: array RGS2^5–16 peptide, C13 substituted by L (MFLAVQHDLRPM; UniProt P41220 5-16, looked up, variant C13L)",-88.83%
7,"C13M: array RGS2^5–16 peptide, C13 substituted by M (MFLAVQHDMRPM; UniProt P41220 5-16, looked up, variant C13M)",-88.01%
8,"C13P: array RGS2^5–16 peptide, C13 substituted by P (MFLAVQHDPRPM; UniProt P41220 5-16, looked up, variant C13P)",-84.68%
9,"C13Q: array RGS2^5–16 peptide, C13 substituted by Q (MFLAVQHDQRPM; UniProt P41220 5-16, looked up, variant C13Q)",-77.02%
10,"C13S: array RGS2^5–16 peptide, C13 substituted by S (MFLAVQHDSRPM; UniProt P41220 5-16, looked up, variant C13S)",-87.05%
11,"C13T: array RGS2^5–16 peptide, C13 substituted by T",-86.63%
12,"C13Y: array RGS2^5–16 peptide, C13 substituted by Y (MFLAVQHDYRPM; UniProt P41220 5-16, looked up, variant C13Y)",-42.98%
13,"D12C: array RGS2^5–16 peptide, D12 substituted by C",43.97%
14,"D12G: array RGS2^5–16 peptide, D12 substituted by G (MFLAVQHGCRPM; UniProt P41220 5-16, looked up, variant D12G)",28.74%
15,"D12H: array RGS2^5–16 peptide, D12 substituted by H (MFLAVQHHCRPM; UniProt P41220 5-16, looked up, variant D12H)",37.64%
16,"D12K: array RGS2^5–16 peptide, D12 substituted by K (MFLAVQHKCRPM; UniProt P41220 5-16, looked up, variant D12K)",124.2%
17,"D12L: array RGS2^5–16 peptide, D12 substituted by L (MFLAVQHLCRPM; UniProt P41220 5-16, looked up, variant D12L)",31.38%
18,"D12M: array RGS2^5–16 peptide, D12 substituted by M (MFLAVQHMCRPM; UniProt P41220 5-16, looked up, variant D12M)",42.32%
19,"D12N: array RGS2^5–16 peptide, D12 substituted by N (MFLAVQHNCRPM; UniProt P41220 5-16, looked up, variant D12N)",55.82%
20,"D12P: array RGS2^5–16 peptide, D12 substituted by P (MFLAVQHPCRPM; UniProt P41220 5-16, looked up, variant D12P)",66.54%
21,"D12Q: array RGS2^5–16 peptide, D12 substituted by Q (MFLAVQHQCRPM; UniProt P41220 5-16, looked up, variant D12Q)",59.62%
22,"D12S: array RGS2^5–16 peptide, D12 substituted by S (MFLAVQHSCRPM; UniProt P41220 5-16, looked up, variant D12S)",59.59%

# — article PMC12554172, “Systematic analysis of the RGS2 degron reveals characteristics of substrate recognition by the F-box protein FBXO44” (The Journal of Biological Chemistry, 2025)
